Laboratory results: paper PMC3936712
Like-named read-outs stand apart in the source and are kept apart here.

Columns and labels:
Experiment in all cases: fluorescence anisotropy
[1] = molecular target: T1, jRdRp (NS5 RdRp module, wt) (Japanese encephalitis virus strain …, UniProt O90417 2799-3432)
[2] = molecular target: T1, jRdRp (NS5 RdRp module, wt); remark: listed apart in the source
[3] = molecular target: T1, jRdRp (NS5 RdRp module, wt); remark: listed apart in the source

B1: 10mer ssRNA (FR10) (ssRNA)
RNA: AUAAACUUCU
For B1, the Kd [1] was 39.3 ± 2.3 nM, the Kd [2] was 40.4 ± 2.1 nM and the Kd [3] was 33.9 ± 0.6 nM.
